Data published in PMC2907653.

Assays:
[1] = substrate: CN(C)c1nc2c(c(=O)[nH]1)[n+](C)cn2[C@@H]1O[C@H](COP(=O)(O)OP(=O)(O)OP(=O)(O)OC[C@H]2O[C@@H](n3cnc4c(=O)[nH]c(N)nc43)[C@H](O)[C@@H]2O)[C@@H](O)[C@H]1O; assay: fluorimetric and HPLC hydrolysis kinetics; assay type: biochemical, Caenorhabditis elegans; settings: cleaved between β and γ phosphates; cap-binding pocket; pH 7.2; 20.0 °C
purified protein [2] = substrate: CC[n+]1cn([C@@H]2O[C@H](COP(=O)(O)OP(=O)(O)OP(=O)(O)OC[C@H]3O[C@@H](n4cnc5c(=O)[nH]c(N)nc54)[C@H](O)[C@@H]3O)[C@@H](O)[C@H]2O)c2nc(N)[nH]c(=O)c21; assay: purified protein; settings: cleaved between β and γ phosphates; cap-binding pocket; pH 7.2; 20.0 °C
purified protein [3] = substrate: CN(C)c1nc2c(c(=O)[nH]1)[n+](C)cn2[C@@H]1O[C@H](COP(=O)(O)OP(=O)(O)OP(=O)(O)OC[C@H]2O[C@@H](n3cnc4c(N)ncnc43)[C@H](O)[C@@H]2O)[C@@H](O)[C@H]1O; assay: purified protein; settings: cleaved between β and γ phosphates; pH 7.2; 20.0 °C
purified protein [4] = substrate: CNc1ncnc2c1ncn2[C@@H]1O[C@H](COP(=O)(O)OP(=O)(O)OP(=O)(O)OC[C@H]2O[C@@H](n3c[n+](C)c4c(=O)[nH]c(N)nc43)[C@H](O)[C@@H]2O)[C@@H](O)[C@H]1O; assay: purified protein; settings: cleaved between β and γ phosphates; pH 7.2; 20.0 °C
purified protein [5] = substrate: CO[C@@H]1[C@H](O)[C@@H](COP(=O)(O)OP(=O)(O)OP(=O)(O)OC[C@H]2O[C@@H](n3c[n+](C)c4c(=O)[nH]c(N)nc43)[C@H](O)[C@@H]2O)O[C@H]1n1cnc2c(=O)[nH]c(N)nc21; assay: purified protein; settings: cleaved between β and γ phosphates; pH 7.2; 20.0 °C
purified protein [6] = substrate: C[n+]1cn([C@@H]2O[C@H](COP(=O)(O)OP(=O)(O)OP(=O)(O)OC[C@H]3O[C@@H](n4c[n+](C)c5c(=O)[nH]c(N)nc54)[C@H](O)[C@@H]3O)[C@@H](O)[C@H]2O)c2nc(N)[nH]c(=O)c21; assay: purified protein; settings: cleaved between β and γ phosphates; pH 7.2; 20.0 °C
purified protein [7] = substrate: C[n+]1cn([C@@H]2O[C@H](COP(=O)(O)OP(=O)(O)OP(=O)(O)OC[C@H]3O[C@@H](n4cnc5c(=O)[nH]c(N)nc54)C[C@@H]3O)[C@@H](O)[C@H]2O)c2nc(N)[nH]c(=O)c21; assay: purified protein; settings: cleaved between β and γ phosphates; pH 7.2; 20.0 °C
purified protein [8] = substrate: C[n+]1cn([C@@H]2O[C@H](COP(=O)(O)OP(=O)(O)OP(=O)(O)OC[C@H]3O[C@@H](n4cnc5c(=O)[nH]c(N)nc54)[C@H](O)[C@@H]3O)[C@@H](O)[C@H]2O)c2nc(N)[nH]c(=O)c21; assay: purified protein; settings: cleaved between β and γ phosphates; cap-binding pocket; pH 7.2; 20.0 °C
purified protein [9] = substrate: C[n+]1cn([C@@H]2O[C@H](COP(=O)(O)OP(=O)(O)OP(=O)(O)OC[C@H]3O[C@@H](n4cnc5c(N)ncnc54)[C@H](O)[C@@H]3O)[C@@H](O)[C@H]2O)c2nc(N)[nH]c(=O)c21; assay: purified protein; settings: cleaved between β and γ phosphates; pH 7.2; 20.0 °C
purified protein [10] = substrate: Nc1nc2c(ncn2[C@@H]2O[C@H](COP(=O)(O)OP(=O)(O)OP(=O)(O)OC[C@H]3O[C@@H](n4c[n+](Cc5ccccc5)c5c(=O)[nH]c(N)nc54)[C@H](O)[C@@H]3O)[C@@H](O)[C@H]2O)c(=O)[nH]1; assay: purified protein; settings: cleaved between β and γ phosphates; cap-binding pocket; pH 7.2; 20.0 °C

B1: C. elegans scavenger decapping enzyme (DcpS) (Caenorhabditis elegans) (protein)
chain: MKRIADEELVREERAEESTQKWLQDAKFQEILGADSSHKSLFVLLSHPDGSQGILLANKSPFSEEKSDIEKLLATAQLQEISRNDIFGSYNIEIDPKLNLLKSQLIYPINDRLIAKYRQEEKFVIRETPELYETVTRPYIEKYQLNLNWVYNCLEKRSEVDKIVFEDPDNENGFVLLQDIKWDGKTLENLYVLAICHRHGLKSVRDLTGDDLEMLYNMRDKSLEAINQKYGLKTDQIKCYFHYQPSFYHLHVHFINLKYDAPASTTMSAILLDDVINNLELNPEHYKKSTLTFTRKNGDKLMEMFREALKN
- Km [1]: 3.85 µM
- Vmax [1]: 4.65 µmol/min/mg
- Km (purified protein [2]): 0.61 µM
- Vmax (purified protein [2]): 3.12 µmol/min/mg
- Km (purified protein [3]): 2.36 µM
- Vmax (purified protein [3]): 2.06 µmol/min/mg
- Km (purified protein [4]): 1.03 µM
- Vmax (purified protein [4]): 1.33 µmol/min/mg
- Km (purified protein [5]): 1.23 µM
- Vmax (purified protein [5]): 1.66 µmol/min/mg
- Km (purified protein [6]): 1.12 µM
- Vmax (purified protein [6]): 0.91 µmol/min/mg
- Km (purified protein [7]): 1.36 µM
- Vmax (purified protein [7]): 2 µmol/min/mg
- Km (purified protein [8]): 1.17 µM
- Vmax (purified protein [8]): 1.53 µmol/min/mg
- Km (purified protein [9]): 0.6 µM
- Vmax (purified protein [9]): 1.09 µmol/min/mg
- Km (purified protein [10]): 1.83 µM
- Vmax (purified protein [10]): 3.06 µmol/min/mg
